Measurements taken from paper doi:10.1101/2020.04.16.045419 (bioRxiv, 2020).
Positions count from the first letter of the chain named.

B1: Sb#1 (VHH)
VHH: QVQLVESGGGLVQAGGSLRLSCAASGFPVRKANMHWYRQAPGKEREWVAAIMSKGEQTVYADSVEGRFTISRDNAKNTVYLQMNSLKPEDTAVYYCRVFVGWHYFGQGTQVTVS
B2: Sb#8 (VHH)
VHH: B1 VHH with R30N, K31A, A32G, M52Q, K54Y, E56R, Q57T, V59Y, E65K, W102M
B3: Sb#31 (VHH)
VHH: QVQLVESGGGLVQAGGSLRLSCAASGFPVNSHFMEWYRQAPGKEREWVAAIQHSSGFHTYYADSVKGRFTISRDNAKNTVYLQMNSLKPEDTAVYYCNVKDTGTTEDYDYWGQGTQVTVS
B4: Sb#27 (VHH)
VHH: QVQLVESGGGLVQAGGSLRLSCAASGFPVYNTWMEWYRQAPGKEREWVAAITSHGYKTYYADSVKGRFTISRDNAKNTVYLQMNSLKPEDTAVYYCNVKDEGDMFTAYDYWGQGTQVTVS
B5: Sb#33 (VHH)
VHH: B4 VHH with Y30A, N31H, T32A, H54Y, E101T, D103T, M104Y, F105R, T106F, A107Y
B6: Sb#25 (VHH)
VHH: QVQLVESGGGLVQAGGSLRLSCAASGFPVHAWEMAWYRQAPGKEREWVAAIRSFGSSTHYADSVKGRFTISRDNAKNTVYLQMNSLKPEDTAVYYCNVKDFGTHHYAYDYWGQGTQVTVS
B7: Sb#36 (VHH)
VHH: B6 VHH with V29E, H30I, S56E, S57R, H59L, T103W, H104Q, Y106Q, A107E
B8: Sb#32 (VHH)
VHH: QVQLDESGGGLVQAGGSLRLSCAASGFPVYHAWMEWYRQAPGKEREWVAAITSSGRHTYYADSVKGRFTISRDNAKNTVYLQMNSLKPEDTAVYYCNVKDAGRVYNSYDYWGQGTQVTVS
B9: Sb#21 (VHH)
VHH: QVQLVESGGGLVQAGGSLRLSCAASGFPVKHHWMFWYRQAPGKEREWVAAIKSYGYGTEYADSVKGRFTISRDNAKNTVYLQMNSLKPEDTAVYYCFVGVGTHYAGQGTQVTVS
B10: Sb#3 (VHH)
VHH: QVQLVESGGGLVQAGGSLRLSCAASGFPVNYKTMWWYRQAPGKEREWVAAIWSYGHTTHYADSVKGRFTISRDNAKNTVYLQMNSLKPEDTAVYYCVVWVGHNYEGQGTQVTVS
B11: Sb#29 (VHH)
VHH: QVQLVESGGGLVQAGGSLRLSCAASGFPVEHEMAWYRQAPGKEREWVAAIRSMGRKTLYADSVKGRFTISRDNAKNTVYLQMNSLKPEDTAVYYCNVKDFGYTWHEYDYWGQGTQVTVS
B12: Sb#28 (VHH)
VHH: QVQLVESGGGLVQAGGSLRLSCAASGFPVYHSTMFWYRQAPGKEREWVAAIYSSGQHTYYADSVKGRFTISRDNAKNTVYLQMNSLKPEDTAVYYCNVKDSGQWRQEYDYWGQGTQVTVS
B13: Sb#37 (VHH)
VHH: B12 VHH with S32A, T33Y, F35E, S54N, Q56E, Q103S, W104F, R105N, E107A
B14: Sb#9 (VHH)
VHH: QVQLVESGGGLVQAGGSLRLSCAASGFPVSSSTMTWYRQAPGKEREWVAAINSYGWETHYADSVKGRFTISRDNAKNTVYLQMNSLKPEDTAVYYCYVYVGGSYIGQGTQVTVS
B15: Sb#19 (VHH)
VHH: B14 VHH with S30N, S32H, T33E, N52Q, Y54T, W56T, E57V, H59E, G102S, I105L
B16: Sb#48 (VHH)
VHH: QVQLVESGGGLVQAGGSLRLSCAASGFPVSQSVMAWYRQAPGKEREWVAAIYSKGQYTHYADSVKGRFTISRDNAKNTVYLQMNSLKPEDTAVYYCNVKDAGSSYWDYDYWGQGTQVTVS
B17: Sb#30 (VHH)
VHH: QVQLVESGGGLVQAGGSLRLSCAASGFPVTMAWMWWYRQAPGKEREWVAAIRSEGVRTYYADSVKGRFTISRDNAKNTVYLQMNSLKPEDTAVYYCNVKDYGQAHAYYDYWGQGTQVTVS
B18: Sb#13 (VHH)
VHH: QVQLVESGGGLVQAGGSLRLSCAASGFPVYASNMHWYRQAPGKEREWVAAIESQGYMTAYADSVKGRFTISRDNAKNTVYLQMNSLKPEDTAVYYCWVIVGEYYVGQGTQVTVS
B19: Sb#38 (VHH)
VHH: QVQLVESGGGLVQAGGSLRLSCAASGFPVEWSHMHWYRQAPGKEREWVAAIVSKGGYTLYADSVKGRFTISRDNAKNTVYLQMNSLKPEDTAVYYCNVKDYGVHFKRYDYWGQGTQVTVI
B20: Sb#35 (VHH)
VHH: QVQLVESGGGLVQAGGSLRLSCAASGFPVEHYWMEWYRQAPGKEREWVAAITSFGYRTYYADSVKGRFTISRDNAKNTVYLQMNSLKPEDTAVYYCNVKDWGFASHAYDYWGQGIQVTVS
B21: Sb#26 (VHH)
VHH: QVQLVESGGGLVQAGGSLRLSCAASGFPVNTWWMHWYRQAPGKEREWVAAITSWGFRTYYADSVKGRFTISRDNAKNTVYLQMNSLKPEDTAVYYCNVKDKGMAVQWYDYWGQGTQVTVS
B22: Sb#49 (VHH)
VHH: QVQLVESGGGSVQAGGSLRLSCAASGSIGQIEYLGWFRQAPGKEREGVAALNTWTGRTYYADSVKGRFTVSLDNAKNTVYLQMNSLKPEDTALYYCAAARWGRTKPLNTYYYSYWGQGTPVTVS
B23: Sb#46 (VHH)
VHH: QVQLVESGGGLVQAGGSLRLSCAASGFPVDNGYMHWYRQAPGKEREWVAAIDSYGWHTIYADSVKGRFTISRDNAKNTVYLQMNSLKPEDTAVYYCNVKDKGQMRAAYDYWGQGTQVTVS
B24: Sb#10 (VHH)
VHH: QVQLVESGGGLVQAGGSLRLSCAASGFPVQSHYMRWYRQAPGKEREWVAAIESTGHHTAYADSVKGRFTISRDNAKNTVYLQMNSLKPEDTAVYYCTVYVGYEYHGQGTQVTVS
B25: Sb#6 (VHH)
VHH: QVQLVESGGGLVQAGGSLRLSCAASGFPVEQGRMYWYRQAPGKEREWVAAIISHGTVTVYADSVKGRFTISRDNAKNTVYLQMNSLKPEDTAVYYCYVYVGAQYWGQGTQVTVS
B26: Sb#12 (VHH)
VHH: B25 VHH with E30K, Q31A, G32S, I52Q, H54F, T56E, V59W, Y99W, A102Q, Q103E
B27: Sb#39 (VHH)
VHH: QVQLVESGGGLVQAGGSLRLSCAASGFPVFHVWMEWYRQAPGKEREWVAAIDSAGWHTYYADSVKGRFTISRDNAKNTVYLQMNSLKPEDTAVYYCNVKDAGNTTSAYDYWGQGTQVTVS
B28: Sb#11 (VHH)
VHH: QVQLVESGGGLVQAGGSLRLSCAASGFPVETENMHWYRQAPGKEREWVAAIYSHGMWTAYADSVKGRFTISRDNTKNTVYLQMNSLKPEDTAVYYCEVEVGKWYFGQGTQVTVS
B29: Sb#2 (VHH)
VHH: QVQLVESGGGLVQAGGSLRLSCATSGFPVYQANMHWYRQAPGKEREWVAAIQSYGDGTHYADSVKGRFTISRDNAKNTVYLQMNSLKPEDTAVYYCRAVYVGMHYFGQGTQVTVS
B30: Sb#20 (VHH)
VHH: QVQLVESGGGLVQAGGSLRLSCAASGFPVEQREMEWYRQAPGKEREWVAAIDSNGNYTFYADSVKGRFTISRDNAKNTVYLQMNSLKPEDTAVYYCYVYVGKSYIGQGTQVTVS
B31: Sb#23 (VHH)
VHH: B30 VHH with E30Y, Q31A, R32A, D52S, N54Q, N56T, Y57I, F59Y, Y97F, T112S
B32: Sb#17 (VHH)
VHH: QVQLVESGGGLVQAGGSLRLSCAASGFPVAGRNMWWYRQAPGKEREWVAAIYSSGTYTEYADSVKGRFTISRDNAKNTVYLQMNSLKPEDTAVYYCHVWVGSLYKGQGTQVTVS
B33: Sb#40 (VHH)
VHH: QVQLVESGGGLVQAGGSLRLSCAASGFPVYYNWMEWYRQAPGKEREWVAAIHSNGDETFYADSVKGRFTISRDNAKNTVYLQMNSLKPEDTAVYYCNVKDIDAEAYAYDYWGQGTQVTVS
B34: Sb#5 (VHH)
VHH: QVQLVESGGGLVQAGGSLRLSCAASGFPVFSGHMHWYRQAPGKEREWVAAILSNGDSTHYADSVKGRFTISRDNAKNTVYLQMNSLKPEDTAVYYCRVHVGAHYFGQGTQVTVS

target: SARS-CoV-2 RBD construct consisting of residues Pro330-Gly526 fused to Venus YFP (RBD-vYFP) (SARS-CoV-2, UniProt P0DTC2)

Row | Binder | binding result
1 | B1 | binds
2 | B2 | binds
3 | B3 | binds
4 | B4 | binds
5 | B5 | binds
6 | B6 | binds
7 | B7 | binds
8 | B8 | binds
9 | B9 | binds
10 | B10 | binds
11 | B11 | binds
12 | B12 | binds
13 | B13 | binds
14 | B14 | binds
15 | B15 | binds
16 | B16 | binds
17 | B17 | binds

Row | Binder | binding result
18 | B18 | binds
19 | B19 | binds
20 | B20 | binds
21 | B21 | binds
22 | B22 | binds
23 | B23 | binds
24 | B24 | binds
25 | B25 | binds
26 | B26 | binds
27 | B27 | binds
28 | B28 | binds
29 | B29 | binds
30 | B30 | binds
31 | B31 | binds
32 | B32 | binds
33 | B33 | binds
34 | B34 | binds
